Results: the supplement of paper PMC6757056
± gives the standard deviation of the averaged measurements.

B1: library; a variant is named by its letters at N, in order (parent)
chain: GCUGUCACCGGUGUAUUACCCUAGUGGUCGACCGGUCUGAUGAGUCUNNNNNNAGACGAAACAGC

Tests used:
hypoxanthine [1] = variants of: B1; assay: normalized RNA/DNA level with ligand (relative to sTRSVctl = 100) (log10 (% of sTRSVctl)); ligand: hypoxanthine (xanthine aptamer); higher = less ribozyme self-cleavage, higher mRNA level; settings: ligand concentration (+) RNA-Seq: 5 mM, HEK293T, reporter: mCherry (pCS4076), ligand present: yes
Procedure, shortened: (§1)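 RNA level was computed as RNA reads over DNA reads divided by a spiked-in non-cleaving sequence or by the top sequences, then scaled and log-transformed. Scaling was ×100 with log10, the top group was 25 sequences, and the threshold was ≥100 DNA reads. The reads came from HEK293T cells transfected at 4 µg per 6-well well with ribozyme switch library plasmids (mCherry, or eGFP in some ligand experiments). Total RNA was extracted with EDTA 72 h after transfection, with any ligand added 1 h before it.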

hypoxanthine [2] = variants of: B1; assay: normalized RNA/DNA level without ligand (relative to sTRSVctl = 100) (log10 (% of sTRSVctl)); ligand: hypoxanthine (xanthine aptamer); higher = less ribozyme self-cleavage, higher mRNA level; settings: HEK293T, reporter: mCherry (pCS4076), ligand present: no
Procedure, shortened: as §1

Row | Variant | normalized RNA/DNA level with ligand (log10) (hypoxanthine [1]) | normalized RNA/DNA level without ligand (log10) (hypoxanthine [2])
1 | GAUUUC | 1.972 ± 0.018 | 1.907 ± 0.012
2 | GAUUUU | 1.947 ± 0.0067 | 1.908 ± 0.0016
3 | UAGUUC | 1.943 ± 0.0072 | 1.87 ± 0.008
4 | UAGUUG | 1.93 ± 0.053 | 1.707 ± 0.0035
5 | UAGUUA | 1.942 ± 0.013 | 1.861 ± 0.0033
6 | UAGUUU | 1.92 ± 0.04 | 1.86 ± 0.023
7 | AAUUCU | 1.9751 ± 0.00092 | 1.855 ± 0.0071
8 | AAUUCC | 1.98 ± 0.039 | 1.9 ± 0.027
9 | CAUCGG | 1.92 ± 0.055 | 1.63 ± 0.036
10 | CAUCGC | 1.97 ± 0.064 | 1.9 ± 0.021
11 | CAUCGU | 2 ± 0.038 | 1.94 ± 0.025
12 | GCAACC | 1.93 ± 0.052 | 1.82 ± 0.03
13 | GCAACU | 1.97 ± 0.042 | 1.96 ± 0.028
14 | GCAACG | 1.9 ± 0.031 | 1.595 ± 0.0074
15 | CAUCAU | 1.921 ± 0.011 | 1.88 ± 0.043
16 | CAUCAA | 1.938 ± 0.011 | 1.81 ± 0.042
17 | CAUCAC | 1.96 ± 0.06 | 1.92 ± 0.062
18 | GAUUCA | 1.961 ± 0.017 | 1.86 ± 0.041
19 | GAUUCU | 1.97 ± 0.065 | 1.92 ± 0.042

Row | Variant | normalized RNA/DNA level with ligand (log10) (hypoxanthine [1]) | normalized RNA/DNA level without ligand (log10) (hypoxanthine [2])
20 | GAUUCC | 1.976 ± 0.0082 | 1.92 ± 0.034
21 | AAGUGC | 1.879 ± 0.018 | 1.53 ± 0.036
22 | AAUGAA | 1.872 ± 0.0038 | 1.71 ± 0.018
23 | UAUAAC | 1.9 ± 0.025 | 1.829 ± 0.017
24 | UAUAAA | 1.89 ± 0.025 | 1.77 ± 0.04
25 | ACAAUU | 1.939 ± 0.019 | 1.736 ± 0.0095
26 | ACAAUC | 1.9924 ± 0.0011 | 1.93 ± 0.025
27 | UAUUUU | 1.94 ± 0.044 | 1.86 ± 0.05
28 | UAUUUC | 1.974 ± 0.01 | 1.911 ± 0.019
29 | UAUUUG | 1.93 ± 0.039 | 1.78 ± 0.026
30 | UAUUUA | 1.93 ± 0.07 | 1.93 ± 0.053
31 | GAUCCC | 2.05 ± 0.042 | 1.889 ± 0.0035
32 | GAUCCU | 1.979 ± 0.014 | 1.948 ± 0.012
33 | GAUCCA | 1.908 ± 0.0041 | 1.9 ± 0.03
34 | GAUCUG | 1.92 ± 0.051 | 1.58 ± 0.039
35 | GAUCUA | 1.95 ± 0.055 | 1.86 ± 0.033
36 | GAUCUC | 1.939 ± 0.0052 | 1.976 ± 0.0046
37 | GAUCUU | 1.96 ± 0.028 | 1.943 ± 0.0084
38 | AAUUGC | 1.905 ± 0.013 | 1.82 ± 0.046

Row | Variant | normalized RNA/DNA level with ligand (log10) (hypoxanthine [1]) | normalized RNA/DNA level without ligand (log10) (hypoxanthine [2])
39 | AAUUGU | 1.93 ± 0.004 | 1.705 ± 0.013
40 | CAUAGC | 1.923 ± 0.0099 | 1.86 ± 0.014
41 | CAUAGU | 2 ± 0.039 | 1.88 ± 0.019
42 | CAUAGG | 1.836 ± 0.015 | 1.43 ± 0.11
43 | CAUCCC | 1.935 ± 0.0098 | 1.91 ± 0.033
44 | CAUCCU | 1.94 ± 0.066 | 1.94 ± 0.023
45 | CAUCCG | 1.95 ± 0.026 | 1.91 ± 0.029
46 | CAUCCA | 1.97 ± 0.056 | 1.94 ± 0.055
47 | CCAAAG | 1.885 ± 0.013 | 1.58 ± 0.033
48 | CCAAAA | 1.92 ± 0.032 | 1.82 ± 0.052
49 | AAUAAC | 1.919 ± 0.0067 | 1.81 ± 0.029
50 | CAUGCC | 1.92 ± 0.1 | 1.84 ± 0.028
51 | CAUGCA | 1.979 ± 0.013 | 1.688 ± 0.016
52 | CCAAGA | 1.945 ± 0.0033 | 1.82 ± 0.034
53 | CCAAGG | 1.83 ± 0.036 | 1.603 ± 0.013
54 | GAUGCA | 1.97 ± 0.036 | 1.83 ± 0.02
55 | GAUAAC | 1.92 ± 0.079 | 1.712 ± 0.0033
56 | UAUCAU | 1.922 ± 0.017 | 1.79 ± 0.045
57 | UAUCAG | 1.87 ± 0.019 | 1.7 ± 0.036
